Measured values as given in article PMC10944485, “Structure of full-length ERGIC-53 in complex with MCFD2 for cargo transport” (Nature Communications, 2024).

How the values were obtained:
[1] = molecular target: ERGIC-53 ΔH34 mutant with a C-terminal FLAG (human) (UniProt P49257); assay: cryo-EM structure; ERGIC-53 ΔH34-MCFD2 complex, 1.7 mg/ml
[2] = molecular target: T1, full-length human ERGIC-53 with a C-terminal PA tag (human), P49257; assay: SEC-MALS; Superdex 200 Increase 3.2/300; 20 mM Tris-HCl pH 7.5, 150 mM NaCl, 10 mM CaCl2, 0.02% GDN; samples 1.6-1.7 mg/ml; conjugate analysis (MALS-UV-RI); ERGIC-53 alone and its complex with MCFD2; settings: remark: other sources report otherwise
T1 chain: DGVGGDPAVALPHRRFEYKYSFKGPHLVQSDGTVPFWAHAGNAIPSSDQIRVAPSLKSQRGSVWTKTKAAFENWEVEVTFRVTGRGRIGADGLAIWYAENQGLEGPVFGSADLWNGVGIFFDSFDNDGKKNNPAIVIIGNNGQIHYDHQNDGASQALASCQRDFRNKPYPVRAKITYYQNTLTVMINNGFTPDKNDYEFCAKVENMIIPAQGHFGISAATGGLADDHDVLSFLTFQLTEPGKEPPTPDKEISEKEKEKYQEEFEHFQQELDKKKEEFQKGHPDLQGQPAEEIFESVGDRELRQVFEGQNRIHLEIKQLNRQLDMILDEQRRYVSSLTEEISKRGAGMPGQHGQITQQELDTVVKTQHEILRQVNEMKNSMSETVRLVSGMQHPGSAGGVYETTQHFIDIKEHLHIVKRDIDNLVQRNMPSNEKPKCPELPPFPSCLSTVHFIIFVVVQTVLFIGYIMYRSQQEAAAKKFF

[3] = molecular target: T1, full-length human ERGIC-53 with a …; assay: cryo-EM structure; full-length ERGIC-53 with MCFD2, 4-5 mg/ml in GDN with 3 mM fluorinated Fos-Choline-8; head region forms A and B, four substates, and full-length map; settings: remark: other sources report otherwise
[4] = molecular target: T1, full-length human ERGIC-53 with a …; assay: SEC-MALS; ERGIC-53 at weakly acidic Golgi pH (pH 6.5); settings: remark: other sources report otherwise
[5] = molecular target: T2, full-length human ERGIC-53 with a C-terminal PA tag (human, UniProt P49257 31-510); assay: SEC-MALS; Superdex 200 Increase 3.2/300; 20 mM Tris-HCl pH 7.5, 150 mM NaCl, 10 mM CaCl2, 0.02% GDN; samples 1.6-1.7 mg/ml; conjugate analysis (MALS-UV-RI); ERGIC-53 alone and its complex with MCFD2; settings: both partners purified
T2 construct: ERGIC-53 (LMAN1), human, full length; cDNA subcloned from a HeLa cDNA library; Eluted from the beads with PA peptide; no step that removes the tag is described; Treated with 1 mM diamide before SEC; mixture of covalent (disulfide-linked) and noncovalent tetramers; The CRD is numbered from residue 31, so the signal peptide is probably cut off in the cells (surmised); also called LMAN1; P58
T2 sequence (looked up): T1 chain

## ERGIC-53 ΔH34 mutant with a C-terminal FLAG (from UniProt P49257 31-510) (receptor)
[1]
  stoichiometry N: 4

B1: full-length human ERGIC-53 with a C-terminal PA tag, P49257 31-510 (receptor)
chain: T1 chain
[2]
  stoichiometry N: 4
[3]
  stoichiometry N: 4
[4]
  stoichiometry N: 4

B2: human MCFD2 lumen domain (residues 27-146) (domain or fragment, UniProt Q8NI22 27-146, looked up)
chain: EEPAASFSQPGSMGLDKNTVHDQEHIMEHLEGVINKPEAEMSPQELQLHYFKMHDYDGNNLLDGLELSTAITHVHKEEGSEQAPLMSEDELINIIDGVLRDDDKNNDGYIDYAEFAKSLQ
notes: MCFD2, human, lumen domain, residues 27-146, in pET15b; Thrombin cleavage of the pET15b His tag probably leaves a few vector residues at the N-terminus (surmised); also called multiple coagulation factor deficiency 2; source: E. coli BL21 (DE3), purified (Ni-NTA, MonoQ, thrombin cleavage, SEC); not shown: His tag, N-terminal, cleaved
[5]
  stoichiometry N: 1
